Results published in paper PMC5086056.

These substances were tested against AcGFP1-JAK3 (pAcGFP1-JAK3) (Bos taurus) (UniProt E1BEL4) (assay: co-IP; Matchmaker Co-IP system; ProLabel enzymatic activity (luminescence, ProLabel detection kit) in protein samples of HEK cells co-transfected with pAcGFP1-JAK3 and a pProLabel prey; read 25 min after addition of the substrate; against the negative control).
Sequence of UniProt E1BEL4 (E1BEL4 entry or part of it): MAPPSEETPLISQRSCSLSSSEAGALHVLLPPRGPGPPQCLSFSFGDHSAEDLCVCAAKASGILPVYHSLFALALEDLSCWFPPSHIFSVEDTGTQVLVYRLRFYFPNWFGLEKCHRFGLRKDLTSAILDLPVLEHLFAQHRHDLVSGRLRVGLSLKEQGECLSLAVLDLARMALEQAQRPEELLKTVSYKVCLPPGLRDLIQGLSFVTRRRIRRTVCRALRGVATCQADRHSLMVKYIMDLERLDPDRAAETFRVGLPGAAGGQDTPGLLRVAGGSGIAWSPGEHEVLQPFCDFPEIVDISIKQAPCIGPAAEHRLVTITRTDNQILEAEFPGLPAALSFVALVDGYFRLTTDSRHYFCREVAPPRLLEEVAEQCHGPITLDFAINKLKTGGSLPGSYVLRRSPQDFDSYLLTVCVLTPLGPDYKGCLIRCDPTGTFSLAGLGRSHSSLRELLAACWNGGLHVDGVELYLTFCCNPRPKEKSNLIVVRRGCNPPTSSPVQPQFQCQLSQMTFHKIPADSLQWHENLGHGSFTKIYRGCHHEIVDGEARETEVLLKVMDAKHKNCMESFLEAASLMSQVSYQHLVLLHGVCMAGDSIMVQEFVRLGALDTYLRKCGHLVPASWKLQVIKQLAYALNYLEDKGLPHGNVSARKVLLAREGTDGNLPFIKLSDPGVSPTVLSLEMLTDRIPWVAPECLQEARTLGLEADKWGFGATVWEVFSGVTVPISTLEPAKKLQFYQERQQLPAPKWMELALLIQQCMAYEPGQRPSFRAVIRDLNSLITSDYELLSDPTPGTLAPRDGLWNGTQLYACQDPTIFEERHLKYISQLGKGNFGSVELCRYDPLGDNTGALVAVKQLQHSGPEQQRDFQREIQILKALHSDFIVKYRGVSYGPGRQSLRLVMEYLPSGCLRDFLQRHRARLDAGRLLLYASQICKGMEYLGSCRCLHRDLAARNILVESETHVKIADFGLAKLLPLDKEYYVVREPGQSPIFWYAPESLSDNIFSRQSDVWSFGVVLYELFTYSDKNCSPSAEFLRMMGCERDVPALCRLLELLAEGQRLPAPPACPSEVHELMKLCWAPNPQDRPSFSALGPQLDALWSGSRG
“ProLabel-INHBA (pProLabel-INHBA) (from UniProt P07995 21-425) (natural protein)” was tested, and the fold induction in ProLabel enzymatic activity as compared to the negative control was 34 fold.
“ProLabel-CDKN1B (pProLabel-CDKN1B) (from UniProt A6QLS3 1-198) (natural protein)” gave a fold induction in ProLabel enzymatic activity as compared to the negative control of 15 fold.
In the case of “ProLabel-LEPROTL1 (pProLabel-LEPROTL1) (from UniProt Q32PD8 1-131) (natural protein)”, the fold induction in ProLabel enzymatic activity as compared to the negative control is reported as 42 fold.
